Laboratory results published in patent publication US20210290602A1.

Biological target: SNAP-25 (endogenous, human induced neurons) (human) (UniProt P60880)
Test: cell-based or functional assay

Sequence of SNAP-25 (endogenous, human induced neurons) (human) (P60880 whole entry): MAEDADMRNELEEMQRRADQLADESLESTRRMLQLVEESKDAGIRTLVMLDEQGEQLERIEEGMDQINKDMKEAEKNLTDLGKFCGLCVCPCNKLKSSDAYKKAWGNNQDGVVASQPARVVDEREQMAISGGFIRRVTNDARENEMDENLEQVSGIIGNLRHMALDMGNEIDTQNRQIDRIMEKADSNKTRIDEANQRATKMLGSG

**Q.** Which results are given for “endogenous CSPα of ANCL patient-derived induced neurons (iNs), which co-express the CSPα^WT and CSPα^L116Δ alleles (from UniProt Q9H3Z4 1-198; Q9H3Z4 1-198)”?
**A.** SNAP-25 degradation half-life, cycloheximide chase in iNs: 12.5 h; SNAP-25 half-life after L1 or Dfx treatment against control, cycloheximide chase in ANCL iNs: 2 fold
